Reference: patent US20120316071A1 (published 2012)

Key:
[1] = target: T1, Recombinant Human DLL4 (R&D Systems Cat#1506-D4/CF) (human, UniProt Q9NR61 27-529); experiment: ECL 96-well plate assay (MSD), 0.02 µM Fab, plate coated with 15 µg/mL DLL4
T1 construct: Bought recombinant protein, coated on the plate; also called delta-like protein 4; rHuman DLL4

[2] = target: T1, Recombinant Human DLL4 (R&D Systems …); experiment: ECL 96-well plate assay (MSD), 0.1 µM Fab, plate coated with 30 µg/mL DLL4
[3] = target: T2, Recombinant Human DLL4 (R&D Systems Cat#1506-D4/CF) (human, UniProt Q9NR61 27-524); experiment: ELISA, DLL4 coated on plate, Fab at 100 nM, absorbance at 450 nm
T2 construct: also called delta-like protein 4; rHuman DLL4

[4] = target: T3, rHuman Erythropoietin R/Fc Chimera, CF (R&D Systems Cat#963-ER) (human, UniProt P19235 25-250); experiment: ECL multispot (MSD) binding assay, antigen spotted on plate, Fab 0.04 uM;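 further: purified Fab incubated 1 h at 20 °C on antigen spots, detected via TAG-labelled antibody, ECL read against each well's blank, with signal-to-blank of at least 4 scored as binder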
T3 construct: Bought recombinant protein; also called EPO R; EPO R/Fc; Fc part of the bought chimera not given
T3 sequence (looked up): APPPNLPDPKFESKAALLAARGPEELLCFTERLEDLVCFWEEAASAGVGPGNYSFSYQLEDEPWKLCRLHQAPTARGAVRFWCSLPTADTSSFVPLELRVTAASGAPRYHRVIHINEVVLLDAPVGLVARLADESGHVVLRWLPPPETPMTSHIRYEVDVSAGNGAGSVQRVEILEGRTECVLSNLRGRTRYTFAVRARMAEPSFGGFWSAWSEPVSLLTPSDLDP

[5] = target: T4, Recombinant Human DLL4 (R&D Systems Cat#1506-D4/CF) (human, UniProt Q9NR61 27-524); experiment: as above
T4 construct: Bought recombinant protein; also called delta-like protein 4; rHuman DLL4

[6] = target: T5, rHuman P-Cadherin/Fc Chimera, CF (R&D Systems Cat#861-PC) (human, UniProt P22223 108-654); experiment: as above
T5 construct: Bought recombinant protein; Fc part of the bought chimera not given

[7] = target: T6, rHuman CD44/Fc Chimera, CF (R&D Systems Cat#3660-CD) (human, UniProt P16070 21-220); experiment: as above
T6 construct: Bought recombinant protein; Fc part of the bought chimera not given

[8] = target: T7, rHuman EGF R/Fc Chimera, CF (R&D Systems Cat#344-ER) (human, UniProt P00533 25-645); experiment: as above
T7 construct: Bought recombinant protein; also called epidermal growth factor receptor; Fc part of the bought chimera not given

B1: Fab VH5-51_IGHD5-18*01>3_IGHJ4*01 & V3-4_IGLJ1*01 (Fab, V domains shown)
VH: EVQLVQSGAEVKKPGESLKISCKGSGYSFTSYWIGWVRQMPGKGLEWMGIIYPGDSDTRYSPSFQGQVTISADKSISTAYLQWSSLKASDTAMYYCARRGYSYGYDYFDYWGQGTLVTVSS
VL: QTVVTQEPSFSVSPGGTVTLTCGLSSGSVSTSYYPSWYQQTPGQAPRTLIYSTNTRSSGVPDRFSGSILGNKAALTITGAQADDESDYYCVLYMGSGISYVFGTGTKVTVL
notes: Tested as Fab from E. coli; VH was cloned into Plasmid A, which supplies CH1 and His6 and Flag tags; The lambda VL was cloned into Plasmid E, which supplies lambda CL; also called wildtype; parent Hit Fab VH5-51_IGHD5-18*01_IGHJ4*01 & V3-4_IGLJ1*01
B1 showed a Signal/Noise [1] of 15.2 and a Signal/Noise [2] of 24.

B2: Fab VH5-51_IGHD5-18*01>3_IGHJ4*01 G100K/G104T G24T/S28R/G35V (H:KT TRV) & V3-4_IGLJ1*01 S96E (Fab, V domains shown)
VH: EVQLVQSGAEVKKPGESLKISCKTSGYRFTSYWIVWVRQMPGKGLEWMGIIYPGDSDTRYSPSFQGQVTISADKSISTAYLQWSSLKASDTAMYYCARRKYSYTYDYFDYWGQGTLVTVSS
VL: QTVVTQEPSFSVSPGGTVTLTCGLSSGSVSTSYYPSWYQQTPGQAPRTLIYSTNTRSSGVPDRFSGSILGNKAALTITGAQADDESDYYCVLYMGEGISYVFGTGTKVTVL
notes: Tested as Fab expressed in E. coli
For B2, the “ELISA Signal-blank (100 nM Fab)” value [3] was 0.439.

B3: Fab VH5-51_IGHD5-18*01>3_IGHJ4*01 G100A & V3-4_IGLJ1*01 (Fab, V domains shown)
VH: EVQLVQSGAEVKKPGESLKISCKGSGYSFTSYWIGWVRQMPGKGLEWMGIIYPGDSDTRYSPSFQGQVTISADKSISTAYLQWSSLKASDTAMYYCARRAYSYGYDYFDYWGQGTLVTVSS
VL: QTVVTQEPSFSVSPGGTVTLTCGLSSGSVSTSYYPSWYQQTPGQAPRTLIYSTNTRSSGVPDRFSGSILGNKAALTITGAQADDESDYYCVLYMGSGISYVFGTGTKVTVL
notes: Heavy chain CDR3 alanine mutant of the parent Fab; Fab format as for the parent
Binder B3 has a Signal/Noise [1] of 24.2 and a Signal/Noise [2] of 53.3.

B4: Fab VH5-51_IGHD5-18*01>3_IGHJ4*01 G100K/G104T G24T/S28R/G35V (H:KT TRV) & V3-4_IGLJ1*01 S96L (Fab, V domains shown)
VH: EVQLVQSGAEVKKPGESLKISCKTSGYRFTSYWIVWVRQMPGKGLEWMGIIYPGDSDTRYSPSFQGQVTISADKSISTAYLQWSSLKASDTAMYYCARRKYSYTYDYFDYWGQGTLVTVSS
VL: QTVVTQEPSFSVSPGGTVTLTCGLSSGSVSTSYYPSWYQQTPGQAPRTLIYSTNTRSSGVPDRFSGSILGNKAALTITGAQADDESDYYCVLYMGLGISYVFGTGTKVTVL
notes: as for B2
B4 was tested, and the “ELISA Signal-blank (100 nM Fab)” value [3] was 0.355.

B5: Fab VH5-51_IGHD5-18*01>3_IGHJ4*01 G104A & V3-4_IGLJ1*01 (Fab, V domains shown)
VH: EVQLVQSGAEVKKPGESLKISCKGSGYSFTSYWIGWVRQMPGKGLEWMGIIYPGDSDTRYSPSFQGQVTISADKSISTAYLQWSSLKASDTAMYYCARRGYSYAYDYFDYWGQGTLVTVSS
VL: QTVVTQEPSFSVSPGGTVTLTCGLSSGSVSTSYYPSWYQQTPGQAPRTLIYSTNTRSSGVPDRFSGSILGNKAALTITGAQADDESDYYCVLYMGSGISYVFGTGTKVTVL
notes: as for B3
B5 was tested, and the Signal/Noise [1] was 12.5 and the Signal/Noise [2] was 41.5.

B6: Fab VH5-51_IGHD5-18*01>3_IGHJ4*01 G100K/G104T G24T/S28R/G35V (H:KT TRV) & V3-4_IGLJ1*01 S96V (Fab, V domains shown)
VH: EVQLVQSGAEVKKPGESLKISCKTSGYRFTSYWIVWVRQMPGKGLEWMGIIYPGDSDTRYSPSFQGQVTISADKSISTAYLQWSSLKASDTAMYYCARRKYSYTYDYFDYWGQGTLVTVSS
VL: QTVVTQEPSFSVSPGGTVTLTCGLSSGSVSTSYYPSWYQQTPGQAPRTLIYSTNTRSSGVPDRFSGSILGNKAALTITGAQADDESDYYCVLYMGVGISYVFGTGTKVTVL
notes: as for B2
In the case of B6, the “ELISA Signal-blank (100 nM Fab)” value [3] is reported as 0.452.

B7: Fab VH5-51_IGHD5-18*01>3_IGHJ4*01 G100K/G104T G24T/S28R/G35V (H:KT TRV) & V3-4_IGLJ1*01 S96M (Fab, V domains shown)
VH: EVQLVQSGAEVKKPGESLKISCKTSGYRFTSYWIVWVRQMPGKGLEWMGIIYPGDSDTRYSPSFQGQVTISADKSISTAYLQWSSLKASDTAMYYCARRKYSYTYDYFDYWGQGTLVTVSS
VL: QTVVTQEPSFSVSPGGTVTLTCGLSSGSVSTSYYPSWYQQTPGQAPRTLIYSTNTRSSGVPDRFSGSILGNKAALTITGAQADDESDYYCVLYMGMGISYVFGTGTKVTVL
notes: as for B2
For B7, the “ELISA Signal-blank (100 nM Fab)” value [3] was 0.358.

B8: Fab VH5-51_IGHD5-18*01>3_IGHJ4*01 G100K/G104T (H:KT) & V3-4_IGLJ1*01 G95A (Fab, V domains shown)
VH: EVQLVQSGAEVKKPGESLKISCKGSGYSFTSYWIGWVRQMPGKGLEWMGIIYPGDSDTRYSPSFQGQVTISADKSISTAYLQWSSLKASDTAMYYCARRKYSYTYDYFDYWGQGTLVTVSS
VL: QTVVTQEPSFSVSPGGTVTLTCGLSSGSVSTSYYPSWYQQTPGQAPRTLIYSTNTRSSGVPDRFSGSILGNKAALTITGAQADDESDYYCVLYMASGISYVFGTGTKVTVL
notes: Fab; Expressed from Plasmid A (CH1, His6 and Flag tags) and Plasmid E (lambda CL); also called KT & G95A
Binder B8 has an ECL signal [4] of 637, an ECL signal [5] of 10400 and an ECL signal [6] of 345. It also gave an ECL signal [7] of 657.

B9: Fab VH5-51_IGHD5-18*01>3_IGHJ4*01 Y105A & V3-4_IGLJ1*01 (Fab, V domains shown)
VH: EVQLVQSGAEVKKPGESLKISCKGSGYSFTSYWIGWVRQMPGKGLEWMGIIYPGDSDTRYSPSFQGQVTISADKSISTAYLQWSSLKASDTAMYYCARRGYSYGADYFDYWGQGTLVTVSS
VL: QTVVTQEPSFSVSPGGTVTLTCGLSSGSVSTSYYPSWYQQTPGQAPRTLIYSTNTRSSGVPDRFSGSILGNKAALTITGAQADDESDYYCVLYMGSGISYVFGTGTKVTVL
notes: as for B3
In the case of B9, the Signal/Noise [1] is reported as 1 and the Signal/Noise [2] is reported as 1.

B10: Fab VH5-51_IGHD5-18*01>3_IGHJ4*01 G100K/G104T (H:KT) & V3-4_IGLJ1*01 L92A (Fab, V domains shown)
VH: EVQLVQSGAEVKKPGESLKISCKGSGYSFTSYWIGWVRQMPGKGLEWMGIIYPGDSDTRYSPSFQGQVTISADKSISTAYLQWSSLKASDTAMYYCARRKYSYTYDYFDYWGQGTLVTVSS
VL: QTVVTQEPSFSVSPGGTVTLTCGLSSGSVSTSYYPSWYQQTPGQAPRTLIYSTNTRSSGVPDRFSGSILGNKAALTITGAQADDESDYYCVAYMGSGISYVFGTGTKVTVL
notes: Fab; Expressed from Plasmid A (CH1, His6 and Flag tags) and Plasmid E (lambda CL); also called KT & L92A
B10 gave an ECL signal [4] of 582, an ECL signal [5] of 11700 and an ECL signal [8] of 1010. It also gave an ECL signal [6] of 326.

B11: Fab VH5-51_IGHD5-18*01>3_IGHJ4*01 S102A & V3-4_IGLJ1*01 (Fab, V domains shown)
VH: EVQLVQSGAEVKKPGESLKISCKGSGYSFTSYWIGWVRQMPGKGLEWMGIIYPGDSDTRYSPSFQGQVTISADKSISTAYLQWSSLKASDTAMYYCARRGYAYGYDYFDYWGQGTLVTVSS
VL: QTVVTQEPSFSVSPGGTVTLTCGLSSGSVSTSYYPSWYQQTPGQAPRTLIYSTNTRSSGVPDRFSGSILGNKAALTITGAQADDESDYYCVLYMGSGISYVFGTGTKVTVL
notes: as for B3
B11 gave a Signal/Noise [1] of 1.8 and a Signal/Noise [2] of 4.7.

B12: Fab VH5-51_IGHD5-18*01>3_IGHJ4*01 Y103A & V3-4_IGLJ1*01 (Fab, V domains shown)
VH: EVQLVQSGAEVKKPGESLKISCKGSGYSFTSYWIGWVRQMPGKGLEWMGIIYPGDSDTRYSPSFQGQVTISADKSISTAYLQWSSLKASDTAMYYCARRGYSAGYDYFDYWGQGTLVTVSS
VL: QTVVTQEPSFSVSPGGTVTLTCGLSSGSVSTSYYPSWYQQTPGQAPRTLIYSTNTRSSGVPDRFSGSILGNKAALTITGAQADDESDYYCVLYMGSGISYVFGTGTKVTVL
notes: as for B3
In the case of B12, the Signal/Noise [1] is reported as 1.5 and the Signal/Noise [2] is reported as 4.

B13: Fab VH5-51_IGHD5-18*01>3_IGHJ4*01 G100K/G104T G24T/S28R/G35V (H:KT TRV) & V3-4_IGLJ1*01 S96P (Fab, V domains shown)
VH: EVQLVQSGAEVKKPGESLKISCKTSGYRFTSYWIVWVRQMPGKGLEWMGIIYPGDSDTRYSPSFQGQVTISADKSISTAYLQWSSLKASDTAMYYCARRKYSYTYDYFDYWGQGTLVTVSS
VL: QTVVTQEPSFSVSPGGTVTLTCGLSSGSVSTSYYPSWYQQTPGQAPRTLIYSTNTRSSGVPDRFSGSILGNKAALTITGAQADDESDYYCVLYMGPGISYVFGTGTKVTVL
notes: as for B2
B13 was tested, and the “ELISA Signal-blank (100 nM Fab)” value [3] was 0.813.

B14: Fab VH5-51_IGHD5-18*01>3_IGHJ4*01 G100K/G104T G24T/S28R/G35V (H:KT TRV) & V3-4_IGLJ1*01 S96R (Fab, V domains shown)
VH: EVQLVQSGAEVKKPGESLKISCKTSGYRFTSYWIVWVRQMPGKGLEWMGIIYPGDSDTRYSPSFQGQVTISADKSISTAYLQWSSLKASDTAMYYCARRKYSYTYDYFDYWGQGTLVTVSS
VL: QTVVTQEPSFSVSPGGTVTLTCGLSSGSVSTSYYPSWYQQTPGQAPRTLIYSTNTRSSGVPDRFSGSILGNKAALTITGAQADDESDYYCVLYMGRGISYVFGTGTKVTVL
notes: as for B2
In the case of B14, the “ELISA Signal-blank (100 nM Fab)” value [3] is reported as 0.499.
